Experimental data from patent US20240059766A1.

What was measured:
[1] = target: T1, Tau(pS404) peptide (human); experiment: direct ELISA, TauS404 coated at 1 ug/mL, antibody titrated
T1 sequence (peptide, only S404 phosphorylated (pS404)): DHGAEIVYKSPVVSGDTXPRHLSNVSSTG

[2] = target: T1, Tau(pS404) peptide (human); experiment: competition ELISA, TauS404 coated at 1 ug/mL, VY014 titrated; peptide 12 at 1 µg/mL as competitor in solution
[3] = target: T1, Tau(pS404) peptide (human); experiment: competition ELISA, TauS404 coated at 1 ug/mL, VY014 titrated; AC04 peptide at 1 µg/mL as competitor in solution

EC50 (read off the curve) [1]: 0.06 nM
EC50 (read off the curve) [2]: 0.2 nM
EC50 (read off the curve) [3]: 0.08 nM
B1: VY014 (antibody, V domains shown)
VH: EVQLVESGGGLVQPGGSLRLSCAASGFTFNNYDMHWVRQAAGKGLEWVSTIGAAGDTYYPGSVKGRFIISRENAKNSLYLQMNSLRAGDTAVYYCARAGETLEGATIGYYYGMDVWGQGTTVTVSS
VL: DILMTQSPLSLPVTPGEPASISCRSSQSLLHSNGYNYLDWYLQKPGQSPQLLIYLGSNRASGVPDRFSGSGSGTDFTLKFSRVEAEDVGLYYCMQALQIPLTFGGGTKVEIK
